Test results reported in patent publication US20100279923A1.

Biological target: T1, factor XII (FXII/FXIIa) in rat plasma (rat) (UniProt D3ZTE0)
T1 sequence (looked up): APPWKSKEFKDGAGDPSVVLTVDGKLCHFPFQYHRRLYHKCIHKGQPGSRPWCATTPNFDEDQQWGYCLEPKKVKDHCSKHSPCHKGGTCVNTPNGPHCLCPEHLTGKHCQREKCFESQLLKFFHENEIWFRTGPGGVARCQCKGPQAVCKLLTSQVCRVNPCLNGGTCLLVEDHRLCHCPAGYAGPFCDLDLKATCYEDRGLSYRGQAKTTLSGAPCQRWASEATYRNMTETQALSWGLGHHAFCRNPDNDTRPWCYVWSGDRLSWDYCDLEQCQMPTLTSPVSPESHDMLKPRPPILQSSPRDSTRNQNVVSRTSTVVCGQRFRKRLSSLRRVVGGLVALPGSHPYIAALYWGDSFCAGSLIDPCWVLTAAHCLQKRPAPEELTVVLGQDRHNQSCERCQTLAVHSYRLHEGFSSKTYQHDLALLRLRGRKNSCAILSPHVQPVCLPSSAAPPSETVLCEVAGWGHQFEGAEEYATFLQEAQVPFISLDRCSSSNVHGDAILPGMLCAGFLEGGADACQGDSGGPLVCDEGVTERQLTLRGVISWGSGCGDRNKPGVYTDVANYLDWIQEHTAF
Assay: cell-based or functional assay

- FXII activity [% of the norm] in rat plasma spiked with 0.98 U/mL Berinert P (% of the norm): 215
- FXII activity [% of the norm] in rat plasma spiked with 2.4 U/mL Berinert P (% of the norm): 94
- FXII activity [% of the norm] in rat plasma spiked with 4.5 U/mL Berinert P (% of the norm): 85
- FXII activity [% of the norm] in rat plasma spiked with 9.92 U/mL Berinert P (% of the norm): 55
- FXII activity [% of the norm] in rat plasma spiked with 16.7 U/mL Berinert P (% of the norm): 25
B1: Berinert P (C1 esterase inhibitor) (protein, human, UniProt P05155 23-500, looked up)
chain: NPNATSSSSQDPESLQDRGEGKVATTVISKMLFVEPILEVSSLPTTNSTTNSATKITANTTDEPTTQPTTEPTTQPTIQPTQPTTQLPTDSPTQPTTGSFCPGPVTLCSDLESHSTEAVLGDALVDFSLKLYHAFSAMKKVETNMAFSPFSIASLLTQVLLGAGENTKTNLESILSYPKDFTCVHQALKGFTTKGVTSVSQIFHSPDLAIRDTFVNASRTLYSSSPRVLSNNSDANLELINTWVAKNTNNKISRLLDSLPSDTRLVLLNAIYLSAKWKTTFDPKKTRMEPFHFKNSVIKVPMMNSKKYPVAHFIDQTLKAKVGQLQLSHNLSLVILVPQNLKHRLEDMEQALSPSVFKAIMEKLEMSKFQPTLLTLPRIKVTTSQDMLSIMEKLEFFDFSYDLNLCGLTEDPDLQVSAMQHQTVLELTETGVEAAAASAISVARTLLVFEVQQPFLFVLWDQQHKFPVFMGRVYDPRA
